Test results published in the nanobody polyreactivity screen of Harvey et al. (2022).

Assay: yeast display, Sf9 membrane polyspecificity reagent, FACS + sequencing; frameworks hold sequencing errors
Summary of the method: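 Using colony PCR, genes from sorted yeast display clones were amplified, then sequenced on MiSeq at 2 × 250 and filtered by CDR length. The clones had been stained with 10% biotinylated, detergent-solubilized Sf9 membrane reagent for 1 hour at 4 °C and sorted by FACS into low and high (top ~1%) gates on anti-HA and streptavidin fluorescence. Polyreactivity labels come from the gate of origin.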

Sequence | polyreactivity (PSR sort gate)
QVQHVESGGGLVQAGGSLRLSCAASGFTFGVNAMGWYRQAPGKERELVAVITSGGNTYYADSVKGRYTISRDNAKNTVYLQMNSLKPEDTAVYYCAADLSYTSYATRYQGDYWGQGTQVTVSS | low polyreactivity
QVQLVESGGGLVQAGGSLRLSSADSGRIFYRYMVWYRHAPGKERELVAAISGRATRTYYADSVKGRFTISRDNAKKTVYLQMNSLKPEDTAVYYCAKRSYHGGDYWGQGTQVTVSS | high polyreactivity
QVQLVDSGGGLVQAGGSLRLSCAASGLIFTYYAMGWYRQAPGKERELVAAINYSGGSTYYADSVKGRFTISRDNAKNSVYLQMNSLKPEDTAVYYCAARRVTQTEGPMGYWGQGTQVTVSS | low polyreactivity
QVQVVESGGGLVQAGGRLRLSCAASGSTFKYYVMGWYRQAPGKERELVAAITRSGSTNYADSVKGRFRISRDNAKNTVYLQMNSLKPEDTAVYYCATDSLRLYGGKRDQYYWGQGTQVTVSS | low polyreactivity
QVQLVESGGGLVQAGGSLRLSCAASGFTFKYYAMGWYRQAPRKERELVAAITSRGGSTYYADSVKGRFTISRDNAKNTVYLQMNSLKPEDTAVYYCAARFRKIGVAFDYWGQGTQVTVSS | high polyreactivity
QVQLVESGGGLVQAGGSLRLSCASSGFTFSRNVMGWYRQAPGKETELVADITLSGASTYYADSVKGRFTISRDNAKNPDYLQMNSLKPEDTAVYYCAADPYHWRWGWRHVYWGQGTQVTVSS | low polyreactivity
QVQLVESGGGLVQAGGSLRLSCAASGSILWSYAMGWYRQAPGKERELVAAITSGGSTYYADSVKGRFTISRDNAKNTVYLQMNSLKPEDTAVYYCAADRWRDFWFNEEYWGQGTQVTVSS | high polyreactivity
QVQLVESGGGLVQAGGSLRLSCAASGTIFVNNAMGWYRQAPGKERELVAAIRRSGGNTYYADSVKGRFTISRDNAKNTVYLQMNSLKPEDTAVYYCNVVRRADSIRAKSRDYWGQGTQVTVSS | high polyreactivity
QVQLVESGGGLVQAGGRLRLSCAASGSTFGYYAMGWYRQAPGKERELVAAITFSVGGTYYADSVKGRFTISRDNAKNTVYLQMNSLKPEDTAVYYCNVDYYVPPAGVTRTGDDVYWGKGTQVTVSS | low polyreactivity
QVQLVESGGGLVQPGGSLRLSCAASGRISSYYAMGWYRQAPGKERELVAAISNAGSTKYADSVKGRFTISRDNAKNTVYLQMNRLKPEDTAVYYCNARSYRWSWVLRYDYWGKGTQVTVSS | high polyreactivity
QVQLVESGGGLVQAGGSLRLSCAASGSTFARNAMGRNRQAPGKERELVARITWSGSGTFYADPVKGRFTISRDNAKNTVYLQMYCLKPQDTAVYYCASEGPSAGFDYWGQGTQVTVSS | high polyreactivity
QVQLVESGGGLVQAGGSLRLSCAASGRILYYYTMGWYRQAPGKEREFVAAISSRGGSTYADSVKGRFTISRDNAKNTVYLQMNSLKPEDTAVFYCNARLKPRWGGRYDYWGQGTQVTVSS | high polyreactivity
QVQLVESGGGLVQAGGSLRLSCAASGITFRYFAMGWYRQAPGKERELVAAITRSGSTTYADSVKGRFTISRDNAKNTVYLQMNSLKPEDTAVYYCAVDYYYLTGGVDYWGQGTQVTVSS | low polyreactivity
QVQLVESGGGLVQAGGSLRLSCDASGITITEYARGWYRQAPGTERELVAVISSVGTMYYADSVKGRFTISRDNEKNTVYLQMKSLKPEDTAVYYCAADYTDDGEYPYWSGSDYWGQGTQVTVSS | low polyreactivity
QVQLVESGGGLVQAGGSLRLSCDASGIIFGFNTMGWYRQAPVKERELVAAINGSDGSTYADSVKGRFTISRDNAKNTVYLQMISVKPEDTAVYYCAKALDYRYRRYDYWGQGTQVTVSS | low polyreactivity
QVQLVESGGGLVQAGGSLRLSCAASGRIFYPYAMGWYRQAPGKERELVAAISWSTGNTYYADSVKGRFTISRDNAKNTVYLQMNSLKPEDTAVYYCNARLAPVRRYWYSGYDYWGQGTQVTVSS | high polyreactivity
QVQLQESGGGLVQAGGSLRLSCAASGTISVHASMGWYRQAPGKERELVAGITDGANTYYADSVKGRFTISRDNSKNTVYMQKNSLKPEDTAVYYCAAYYGTEVHFTYWGQGTQVTVSS | low polyreactivity
QVQLVESCGGLVQAGGSLRLSCAASGSIFQSYAMGWYRQAPGKERELVAAITERGGSTYYADSVKGRFTISRDNAKNTVYLQMNSLKPEDTAVYYCAADIYYWWGLSDLYTPTEGDYWGQGTQVTVSS | low polyreactivity
QVQLVESGGGLVQAGGSLRLSCAASGRTFLVYAMGWYRQPPGTERELVAAITSGGSTYYADSVKGRFTISRDNAKNTVYLQMNSLKPEDTAVYYCAAKIRGYPRRRYDYWGQGTQVTVSS | high polyreactivity
QVQLLESGVGLDQAGGSLRLSCAASGSTFNRNAMGWYRQAPGKERELVAAITYSGGSTYYADSVKGRFTISRDNAKNTVYLQMNSLNPEDTAVYYCNAPYAGMGYWGQGTQVTVSS | low polyreactivity
QVQLVESGGGLVQAGGSLRLSCAASGTTFYSNAMGWYRQAPGKEREFVAAISYSGGSTYYADSVKGRFTISRDNAKYTVYLQMNSLKPEDTAVYYCNARNWYYDGDYWVQGTQVTVSS | high polyreactivity
QVQLVDSGGGLVQAGGSLRLSCAASGITFSWYAMGWYRQAPGKERELVAAITRNGGSTYYADSVKGRFTISRDNAKNTVYLLMNSLKPEDTAVYYCNARKKYENYYWGQGTQVTVSS | high polyreactivity
